Test results reported in doi:10.1101/2021.06.01.446590 (bioRxiv, 2021).

Experiments:
[1] = biological target: human parkin, full-length (human, UniProt O60260 1-465); assay: ITC
His6-Smt3-Parkin = His6-Smt3-Parkin (human, UniProt O60260 1-465, RED-tris-NTA dye bound to the His6 tag); assay: MST
His6-Smt3-Parkin, sequence (O60260 whole entry): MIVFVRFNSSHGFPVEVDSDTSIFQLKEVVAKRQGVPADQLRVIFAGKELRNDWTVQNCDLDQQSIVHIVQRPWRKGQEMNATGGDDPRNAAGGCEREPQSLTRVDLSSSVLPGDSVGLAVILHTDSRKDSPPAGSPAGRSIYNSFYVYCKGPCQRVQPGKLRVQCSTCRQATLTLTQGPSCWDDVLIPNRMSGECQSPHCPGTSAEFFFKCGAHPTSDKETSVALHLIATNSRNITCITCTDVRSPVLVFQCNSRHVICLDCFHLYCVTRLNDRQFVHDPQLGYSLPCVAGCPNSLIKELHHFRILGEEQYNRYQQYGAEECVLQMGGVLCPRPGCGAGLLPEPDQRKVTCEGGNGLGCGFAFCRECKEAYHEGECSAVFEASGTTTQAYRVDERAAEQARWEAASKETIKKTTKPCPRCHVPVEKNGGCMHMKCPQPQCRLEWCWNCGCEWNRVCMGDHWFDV

human parkin, full-length, sequence (O60260 whole entry): as above

B1: human CISD1 (residues 32-108) (domain or fragment, UniProt Q9NZ45 32-108, looked up)
chain: KRFYVKDHRNKAMINLHIQKDNPKIVHAFDMEDLGDKAVYCRCWRSKKFPFCDGAHTKHNEETGDNVGPLIIKKKET
- Kd [1]: > 100 µM

B2: Miro1^181-579 (soluble construct of Miro1 containing the EF1-EF2-G2 domains) (domain or fragment, human, UniProt Q8IXI2 181-579, looked up)
chain: MKPACIKALTRIFKISDQDNDGTLNDAELNFFQRICFNTPLAPQALEDVKNVVRKHISDGVADSGLTLKGFLFLHTLFIQRGRHETTWTVLRRFGYDDDLDLTPEYLFPLLKIPPDCTTELNHHAYLFLQSTFDKHDLDRDCALSPDELKDLFKVFPYIPWGPDVNNTVCTNERGWITYQGFLSQWTLTTYLDVQRCLEYLGYLGYSILTEQESQASAVTVTRDKKIDLQKKQTQRNVFRCNVIGVKNCGKSGVLQALLGRNLMRQKKIREDHKSYYAINTVYVYGQEKYLLLHDISESEFLTEAEIICDVVCLVYDVSNPKSFEYCARIFKQHFMDSRIPCLIVAAKSDLHEVKQEYSISPTDFCRKHKMPPPQAFTCNTADAPSKDIFVKLTTMAMY
- Kd (His6-Smt3-Parkin): > 100 µM
